These results are taken from publication PMC5767323, “Differential NtcA Responsiveness to 2-Oxoglutarate Underlies the Diversity of C/N Balance Regulation in Prochlorococcus” (Frontiers in Microbiology, 2018).

The target of series [1] is T1, NtcA (Prochlorococcus marinus, UniProt Q7TUN1).
T1 construct: recombinant His6-tagged NtcA (pET-15b)
T1 sequence (Q7TUN1 1-222): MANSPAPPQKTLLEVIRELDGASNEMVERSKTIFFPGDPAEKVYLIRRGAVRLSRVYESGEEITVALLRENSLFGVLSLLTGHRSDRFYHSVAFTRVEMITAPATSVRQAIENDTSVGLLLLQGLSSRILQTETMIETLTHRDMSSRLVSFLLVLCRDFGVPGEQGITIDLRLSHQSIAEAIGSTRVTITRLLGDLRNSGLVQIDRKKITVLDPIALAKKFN
The series is described as follows: ITC of NtcA-dsDNA at varied 2OG, ternary equilibrium fit; supported by SPR and EMSA. Format: binding. (In EMSA bound probe runs differently from free probe, usually more slowly.)

Series [2] addresses T2, NtcA (Prochlorococcus marinus, UniProt Q7TUG3).
T2 construct: recombinant His6-tagged NtcA (pET-15b)
T2 sequence (Q7TUG3 1-244): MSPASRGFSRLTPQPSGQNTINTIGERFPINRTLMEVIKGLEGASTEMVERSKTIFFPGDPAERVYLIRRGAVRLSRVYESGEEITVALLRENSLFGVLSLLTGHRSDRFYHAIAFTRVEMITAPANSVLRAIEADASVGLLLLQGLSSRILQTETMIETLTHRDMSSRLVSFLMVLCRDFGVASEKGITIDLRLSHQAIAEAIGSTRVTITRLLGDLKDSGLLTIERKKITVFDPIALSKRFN
The series is described as follows: ITC of NtcA-dsDNA at varied 2OG, ternary equilibrium fit. Format: binding.

The target in series [3] is T3, NtcA (Prochlorococcus marinus, UniProt Q7VDU1).
T3 construct: recombinant His6-tagged NtcA (pET-15b)
T3 sequence (Q7VDU1 1-244): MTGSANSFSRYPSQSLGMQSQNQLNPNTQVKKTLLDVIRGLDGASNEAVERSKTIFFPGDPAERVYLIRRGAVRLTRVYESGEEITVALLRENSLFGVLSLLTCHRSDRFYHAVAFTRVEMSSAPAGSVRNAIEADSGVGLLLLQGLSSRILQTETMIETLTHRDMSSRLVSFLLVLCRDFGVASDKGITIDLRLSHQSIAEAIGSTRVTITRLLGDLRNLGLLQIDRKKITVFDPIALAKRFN
Put plainly: ITC of NtcA-dsDNA at varied 2OG, ternary equilibrium fit; supported by SPR and EMSA. Type of series: binding.

Series [4] concerns the target T4, NtcA SS120 (Prochlorococcus sp. SS120) (UniProt Q7VDU1).
T4 sequence: T3 sequence (Q7VDU1 1-244)
The series is described as follows: ITC. The following applies: ITC: 50 mM Hepes, 350 mM NaCl, pH 7.5, 25 C, 0-10 mM 2OG, SPR: Biacore X, CM5 with neutravidin, buffer not given, EMSA: as Napolitano et al. 2012, 1 uM ….

A further series addresses T5, NtcA MIT9313 (Prochlorococcus sp. MIT9313, UniProt Q7TUN1 1-222).
T5 sequence: T1 sequence (Q7TUN1 1-222)
Put plainly: ITC; saturating 2OG (Kd,eff = Kd/alpha, extrapolated from fit); ITC: 50 mM Hepes, 350 mM NaCl, pH 7.5, 25 C, 0-10 mM 2OG; SPR: Biacore X, CM5 with neutravidin, 25 C, buffer not given; EMSA: as Napolitano et al. 2012, 1 uM NtcA. The following applies: protein: recombinant; tags: His6 (pET-15b); chain copies: 2; blunt.

In series [5] the target is T6, NtcA MED4 (Prochlorococcus sp. MED4, UniProt Q7TUG3 1-244).
T6 sequence: T2 sequence (Q7TUG3 1-244)
The series is described as above. To be noted: protein: recombinant; tags: His6 (pET-15b); chain copies: 2; blunt.

Series [6] deals with T6, NtcA MED4. The series is described as follows: ITC; independent of 2OG; ITC: 50 mM Hepes, 350 mM NaCl, pH 7.5, 25 C, 0-10 mM 2OG; SPR: Biacore X, CM5 with neutravidin, 25 C, buffer not given; EMSA: as Napolitano et al. 2012, 1 uM NtcA. The following applies: protein: recombinant; tags: His6 (pET-15b); chain copies: 2; blunt. (In general: ITC needs no label: the signal is the heat of the interaction.)

The target of the next series is T7, NtcA SS120 (Prochlorococcus sp. SS120, UniProt Q7VDU1 1-244).
T7 sequence: T3 sequence (Q7VDU1 1-244)
The series is described as follows: ITC; saturating 2OG (Kd,eff = Kd/alpha, extrapolated from fit); ITC: 50 mM Hepes, 350 mM NaCl, pH 7.5, 25 C, 0-10 mM 2OG; SPR: Biacore X, CM5 with neutravidin, 25 C, buffer not given; EMSA: as Napolitano et al. 2012, 1 uM NtcA. The following applies: protein: recombinant; tags: His6 (pET-15b); chain copies: 2; blunt.

For the molecule `O=C(O)CCC(=O)C(=O)O` [2OG, 2-oxoglutarate], the dissociation constant (Kd) (commonly the concentration at which binding is half-saturated) on NtcA [1] is 19000 ± 2000 µM; on NtcA [2], 36000 ± 3000 µM; on NtcA [3], 42000 ± 3000 µM.
Regarding “CCAATAAGCCCCACACGGCATTATTG (double strand) [DNA4, glnA promoter SS120 mutated]”, in series [4], the Kd turned out to be 10 µM.

B1: DNA1, glnA promoter MIT9313 wt (dsDNA)
DNA 1: TAGAAGGTACCTGTTGCTACAAAAAG
DNA 2: CTTTTTGTAGCAACAGGTACCTTCTA
As to B1, the equilibrium dissociation constant (Kd) in the series with NtcA MIT9313 was 0.06 ± 0.01 µM.

B2: DNA5, glnA promoter MED4 wt (dsDNA)
DNA 1: AAAAAGTTACCTTTGATACATAAT
DNA 2: ATTATGTATCAAAGGTAACTTTTT
For B2, the equilibrium dissociation constant (Kd) with NtcA MED4 [5] is 0.5 ± 0.1 µM.

B3: DNA6, glnA promoter MED4 mutated (dsDNA)
DNA 1: AAAAACTAACCTTTGACTGATAAT
DNA 2: ATTATCAGTCAAAGGTTAGTTTTT
Turning to B3, in the series with NtcA MED4 [6], the dissociation constant Kd was determined as 9.5 ± 0.9 µM.

B4: DNA3, glnA promoter SS120 wt (dsDNA)
DNA 1: CCAATAGTCACAAAAAGTACTTATTG
DNA 2: CAATAAGTACTTTTTGTGACTATTGG
On to B4, for which the equilibrium dissociation constant (Kd) with NtcA SS120 was 0.8 ± 0.2 µM.
